From PMC4434323 come the findings set out here.

Series [1] deals with T1, Y75B8A.6 (Y75B8A.6) (Caenorhabditis elegans) (UniProt A0A168H365).
T1 sequence: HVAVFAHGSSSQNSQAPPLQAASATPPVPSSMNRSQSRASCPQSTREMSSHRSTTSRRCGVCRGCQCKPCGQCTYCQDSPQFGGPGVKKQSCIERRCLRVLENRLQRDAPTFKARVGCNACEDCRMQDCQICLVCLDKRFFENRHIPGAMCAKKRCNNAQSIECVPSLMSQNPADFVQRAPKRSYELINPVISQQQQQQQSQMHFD

The target of series [2] is klf-3 (F54H5.4) (Caenorhabditis elegans) (UniProt Q65ZG6).
Series [3] addresses T2, ceh-52 (C07E3.5) (Caenorhabditis elegans) (UniProt Q17788).
T2 sequence: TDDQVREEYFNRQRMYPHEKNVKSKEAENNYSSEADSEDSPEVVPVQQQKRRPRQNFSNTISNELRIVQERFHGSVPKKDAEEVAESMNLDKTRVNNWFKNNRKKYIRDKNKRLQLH

Series [4] deals with T3, ztf-14 (M163.2) (Caenorhabditis elegans).
T3 sequence: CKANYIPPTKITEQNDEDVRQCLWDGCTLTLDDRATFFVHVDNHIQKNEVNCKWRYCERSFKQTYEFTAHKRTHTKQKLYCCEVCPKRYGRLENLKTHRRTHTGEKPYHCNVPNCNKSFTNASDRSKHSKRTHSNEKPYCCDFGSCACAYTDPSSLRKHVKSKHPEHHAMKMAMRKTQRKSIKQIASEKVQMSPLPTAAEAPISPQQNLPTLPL

For series [5], the system named is T4, syd-9 (ZK867.1) (Caenorhabditis elegans).
T4 sequence: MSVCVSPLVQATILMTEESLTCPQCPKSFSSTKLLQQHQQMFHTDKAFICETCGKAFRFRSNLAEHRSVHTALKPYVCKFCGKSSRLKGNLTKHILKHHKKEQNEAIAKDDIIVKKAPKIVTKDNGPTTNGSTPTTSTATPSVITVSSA

Series [6] has as its target T5, lsl-1 (F52F12.4) (Caenorhabditis elegans) (UniProt O02273).
T5 sequence: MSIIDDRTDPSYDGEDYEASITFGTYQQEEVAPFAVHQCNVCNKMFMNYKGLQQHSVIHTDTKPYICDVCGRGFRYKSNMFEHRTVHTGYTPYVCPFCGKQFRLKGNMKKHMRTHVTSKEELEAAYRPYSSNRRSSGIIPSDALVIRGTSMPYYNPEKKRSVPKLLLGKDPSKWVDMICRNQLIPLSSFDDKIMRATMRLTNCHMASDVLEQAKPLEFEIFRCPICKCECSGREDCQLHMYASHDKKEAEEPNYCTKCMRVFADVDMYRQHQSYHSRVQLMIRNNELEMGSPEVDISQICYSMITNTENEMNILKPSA

Series [7] deals with T6, efl-2 (Y48C3A.17) (Caenorhabditis elegans) (UniProt A5HWA8).
T6 sequence: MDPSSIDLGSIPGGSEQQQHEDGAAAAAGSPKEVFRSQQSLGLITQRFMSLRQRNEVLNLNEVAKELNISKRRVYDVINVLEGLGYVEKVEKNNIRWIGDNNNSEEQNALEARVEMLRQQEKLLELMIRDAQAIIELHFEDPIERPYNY

Series [8] has as its target T7, Y44A6D.3 (Y44A6D.3) (Caenorhabditis elegans) (UniProt Q9XXE0).
T7 sequence: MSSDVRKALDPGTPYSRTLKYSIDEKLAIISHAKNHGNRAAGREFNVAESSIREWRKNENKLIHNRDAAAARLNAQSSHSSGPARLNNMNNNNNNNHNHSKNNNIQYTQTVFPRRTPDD

Chain of klf-3 (F54H5.4) (Caenorhabditis elegans) (Q65ZG6 180-315): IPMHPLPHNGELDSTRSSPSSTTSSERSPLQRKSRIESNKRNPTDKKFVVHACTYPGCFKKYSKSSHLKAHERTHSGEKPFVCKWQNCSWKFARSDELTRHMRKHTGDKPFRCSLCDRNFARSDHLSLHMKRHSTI

The sequence “CCGCGGGA (double strand) [8-mer CCGCGGGA]” returned a binding signal (PBM E-score (-0.5 to 0.5)) in series [1] of 0.458.
In series [2], “CCCCGCCC (double strand) [8-mer CCCCGCCC]” yielded a binding signal (PBM E-score (-0.5 to 0.5)) of 0.489.
In series [3], “GGGAGTTA (double strand) [8-mer GGGAGTTA]” gave a binding signal (PBM E-score (-0.5 to 0.5)) of 0.459.
Sequence “GGACCACC (double strand) [8-mer GGACCACC]” showed a binding signal (PBM E-score (-0.5 to 0.5)) in series [4] of 0.495.
For the sequence “GGCCACCC (double strand) [8-mer GGCCACCC]”, the binding signal (PBM E-score (-0.5 to 0.5)) in series [4] amounted to 0.494.
For the sequence “ATACTGTA (double strand) [8-mer ATACTGTA]”, the binding signal (PBM E-score (-0.5 to 0.5)) in series [5] came to 0.493; in series [6], 0.494.
Take “CCACGCCC (double strand) [8-mer CCACGCCC]”: the binding signal (PBM E-score (-0.5 to 0.5)) in series [2] is 0.494.
As for “CTACAGTA (double strand) [8-mer CTACAGTA]”, the results for the binding signal (PBM E-score (-0.5 to 0.5)) in series [5] and in series [6] were 0.49 and 0.498, respectively.
Regarding “CGCGCGCG (double strand) [8-mer CGCGCGCG]”, the binding signal (PBM E-score (-0.5 to 0.5)) in series [7] was 0.494; in series [1], 0.476.
For “ATACAGTA (double strand) [8-mer ATACAGTA]”, the figures for the binding signal (PBM E-score (-0.5 to 0.5)) in series [5] and in series [6] were 0.492 and 0.491, respectively.
In series [2], “AGGGCGTA (double strand) [8-mer AGGGCGTA]” returned a binding signal (PBM E-score (-0.5 to 0.5)) of 0.484.
With “GTACAGTA (double strand) [8-mer GTACAGTA]”, the binding signal (PBM E-score (-0.5 to 0.5)) in series [5] and in series [6] was 0.495 in each case.
Take “GTACGGTA (double strand) [8-mer GTACGGTA]”: the binding signal (PBM E-score (-0.5 to 0.5)) in series [5] was 0.492; in series [6], 0.494.
“ATGGGTGG (double strand) [8-mer ATGGGTGG]” displayed a binding signal (PBM E-score (-0.5 to 0.5)) in series [4] of 0.452.
For “CACGCCCA (double strand) [8-mer CACGCCCA]”, the binding signal (PBM E-score (-0.5 to 0.5)) in series [2] was 0.49.
“CAACGCCC (double strand) [8-mer CAACGCCC]”: the binding signal (PBM E-score (-0.5 to 0.5)) in series [2] was found to be 0.482.
On to “AGGGTAAA (double strand) [8-mer AGGGTAAA]”, for which the binding signal (PBM E-score (-0.5 to 0.5)) in series [4] came to 0.46.
Turning to “AGGCCACC (double strand) [8-mer AGGCCACC]”, the binding signal (PBM E-score (-0.5 to 0.5)) in series [4] was 0.453.
Take “CGCGGCGC (double strand) [8-mer CGCGGCGC]”: the binding signal (PBM E-score (-0.5 to 0.5)) in series [1] was 0.461.
“GACCCCCC (double strand) [8-mer GACCCCCC]” returned a binding signal (PBM E-score (-0.5 to 0.5)) in series [4] of 0.478.
As for “ATACGCCC (double strand) [8-mer ATACGCCC]”, the binding signal (PBM E-score (-0.5 to 0.5)) in series [2] is 0.48.
In the case of “AGGTGGTC (double strand) [8-mer AGGTGGTC]”, the binding signal (PBM E-score (-0.5 to 0.5)) in series [4] turned out to be 0.475.
Turning to “GCGCGCGC (double strand) [8-mer GCGCGCGC]”, the binding signal (PBM E-score (-0.5 to 0.5)) in series [7] turned out to be 0.495; in series [1], 0.465.
“AGACCACC (double strand) [8-mer AGACCACC]” registered a binding signal (PBM E-score (-0.5 to 0.5)) in series [4] of 0.494.
Take “CTACGCCC (double strand) [8-mer CTACGCCC]”: the binding signal (PBM E-score (-0.5 to 0.5)) in series [2] amounted to 0.48.
On the same count and under the same terms, the figure for “AGGGCGTG (double strand) [8-mer AGGGCGTG]” is 0.491.
In series [3], “ATAACACC (double strand) [8-mer ATAACACC]” gave a binding signal (PBM E-score (-0.5 to 0.5)) of 0.457.
“GACCACAC (double strand) [8-mer GACCACAC]” showed a binding signal (PBM E-score (-0.5 to 0.5)) in series [4] of 0.488.
“CGCGGAAA (double strand) [8-mer CGCGGAAA]” displayed a binding signal (PBM E-score (-0.5 to 0.5)) in series [1] of 0.457.
In series [2], “AAGGGCGT (double strand) [8-mer AAGGGCGT]” gave a binding signal (PBM E-score (-0.5 to 0.5)) of 0.487.
On to “GACCACCC (double strand) [8-mer GACCACCC]”, for which, in series [4], the binding signal (PBM E-score (-0.5 to 0.5)) stood at 0.499.
For “CCGCGGAA (double strand) [8-mer CCGCGGAA]”, the binding signal (PBM E-score (-0.5 to 0.5)) in series [1] worked out at 0.468.
In turn, “ATAACTCC (double strand) [8-mer ATAACTCC]” came in with a binding signal (PBM E-score (-0.5 to 0.5)) in series [3] of 0.482.
As for “GACCTCCC (double strand) [8-mer GACCTCCC]”, in series [4], the binding signal (PBM E-score (-0.5 to 0.5)) came to 0.479.
Turning to “CCACACCC (double strand) [8-mer CCACACCC]”, the binding signal (PBM E-score (-0.5 to 0.5)) in series [2] was 0.486.
On to “TCCGCGGA (double strand) [8-mer TCCGCGGA]”, for which the binding signal (PBM E-score (-0.5 to 0.5)) in series [1] was 0.471.
In series [4], “ACCACCCA (double strand) [8-mer ACCACCCA]” came in with a binding signal (PBM E-score (-0.5 to 0.5)) of 0.469.
“CCCGCCCA (double strand) [8-mer CCCGCCCA]” displayed a binding signal (PBM E-score (-0.5 to 0.5)) in series [2] of 0.485.
For “GTACTGTA (double strand) [8-mer GTACTGTA]”, the binding signal (PBM E-score (-0.5 to 0.5)) in series [5] was found to be 0.496; in series [6], 0.497.
The sequence “GCGCGCAA (double strand) [8-mer GCGCGCAA]” returned a binding signal (PBM E-score (-0.5 to 0.5)) in series [1] of 0.458.
In turn, “ACCACCCT (double strand) [8-mer ACCACCCT]” registered a binding signal (PBM E-score (-0.5 to 0.5)) in series [4] of 0.463.
As for “AGAGTTAT (double strand) [8-mer AGAGTTAT]”, the binding signal (PBM E-score (-0.5 to 0.5)) in series [3] amounted to 0.481.
Regarding “CCGCGCGC (double strand) [8-mer CCGCGCGC]”, the binding signal (PBM E-score (-0.5 to 0.5)) in series [1] turned out to be 0.462.
“AAGAGTTA (double strand) [8-mer AAGAGTTA]” gave a binding signal (PBM E-score (-0.5 to 0.5)) in series [3] of 0.463.
As to “CCGCGCGG (double strand) [8-mer CCGCGCGG]”, the values for the binding signal (PBM E-score (-0.5 to 0.5)) in series [8] and in series [1] were 0.495 and 0.465, respectively.
As to “GGGGTTAA (double strand) [8-mer GGGGTTAA]”, in series [3], the binding signal (PBM E-score (-0.5 to 0.5)) was 0.454.
With “GAGTTATA (double strand) [8-mer GAGTTATA]”, the binding signal (PBM E-score (-0.5 to 0.5)) in series [3] stood at 0.465.
The sequence “CGCGGAAC (double strand) [8-mer CGCGGAAC]” returned a binding signal (PBM E-score (-0.5 to 0.5)) in series [1] of 0.454.
“AACGCCCA (double strand) [8-mer AACGCCCA]” displayed a binding signal (PBM E-score (-0.5 to 0.5)) in series [2] of 0.483.
On to “TACTGTAA (double strand) [8-mer TACTGTAA]”, for which the binding signal (PBM E-score (-0.5 to 0.5)) in series [5] turned out to be 0.494; in series [6], 0.49.
For “TAACTCTA (double strand) [8-mer TAACTCTA]”, the binding signal (PBM E-score (-0.5 to 0.5)) in series [3] was 0.459.
In series [3], “AGAGTTAA (double strand) [8-mer AGAGTTAA]” registered a binding signal (PBM E-score (-0.5 to 0.5)) of 0.452.
“GGAGTTAA (double strand) [8-mer GGAGTTAA]” showed a binding signal (PBM E-score (-0.5 to 0.5)) in series [3] of 0.464.
For the sequence “CGCGCGGC (double strand) [8-mer CGCGCGGC]”, in series [1], the binding signal (PBM E-score (-0.5 to 0.5)) is 0.451.
The sequence “AGTGTTAT (double strand) [8-mer AGTGTTAT]” had a binding signal (PBM E-score (-0.5 to 0.5)) in series [3] of 0.454.
For “TACAGTAA (double strand) [8-mer TACAGTAA]”, the binding signal (PBM E-score (-0.5 to 0.5)) in series [5] was found to be 0.494; in series [6], 0.495.
“ACGCCCAT (double strand) [8-mer ACGCCCAT]”: in series [2], the binding signal (PBM E-score (-0.5 to 0.5)) turned out to be 0.49.
“TACGCCCA (double strand) [8-mer TACGCCCA]” gave a binding signal (PBM E-score (-0.5 to 0.5)) in series [2] of 0.486.
“TAACTCCA (double strand) [8-mer TAACTCCA]” came in with a binding signal (PBM E-score (-0.5 to 0.5)) in series [3] of 0.475.
Sequence “CCCGCGGG (double strand) [8-mer CCCGCGGG]” registered a binding signal (PBM E-score (-0.5 to 0.5)) in series [1] of 0.451.
Sequence “GACCACCA (double strand) [8-mer GACCACCA]” came in with a binding signal (PBM E-score (-0.5 to 0.5)) in series [4] of 0.454.
